From the supplement of paper PMC9233669
Fewer inactive variants are shown than the library holds.

Tests used:
biotinyl-Leu-oxazolone = experiment: self-aminoacylation, catalytic enhancement (BLO) (fold over background); higher = more active; k-Seq, kA / k0A0; sequences stand for … in GGGAAUGGAUCCACAUCUACGAAUUC…UUCACUGCAGACUUGACGAAGCUG
Outline: (§1)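 Working in 50 μL HEPES/NaCl/KCl/MgCl2/CaCl2 buffer with 5% acetonitrile at pH 6.9–7.0, mutagenized RNA pools (0.43 μM; 21-nt variable region) were reacted with 2–1250 μM of each biotinyl-aminoacyl-oxazolone for 90 minutes at room temperature. Streptavidin capture followed, with quantification by triplicate qPCR and Illumina sequencing. Catalytic enhancement is reported as median kA over the uncatalyzed rate, the low-activity peak of a bimodal Gaussian fit to the data.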

biotinyl-Ile-oxazolone = experiment: self-aminoacylation, catalytic enhancement (BIO) (fold over background); higher = more active; k-Seq, kA / k0A0; sequences stand for … in GGGAAUGGAUCCACAUCUACGAAUUC…UUCACUGCAGACUUGACGAAGCUG
Outline: as §1

biotinyl-Val-oxazolone = experiment: self-aminoacylation, catalytic enhancement (BVO) (fold over background); higher = more active; k-Seq, kA / k0A0; sequences stand for … in GGGAAUGGAUCCACAUCUACGAAUUC…UUCACUGCAGACUUGACGAAGCUG
Outline: as §1

biotinyl-Met-oxazolone = experiment: self-aminoacylation, catalytic enhancement (BMO) (fold over background); higher = more active; k-Seq, kA / k0A0; sequences stand for … in GGGAAUGGAUCCACAUCUACGAAUUC…UUCACUGCAGACUUGACGAAGCUG
Outline: as §1

biotinyl-Trp-oxazolone = experiment: self-aminoacylation, catalytic enhancement (BWO) (fold over background); higher = more active; k-Seq, kA / k0A0; sequences stand for … in GGGAAUGGAUCCACAUCUACGAAUUC…UUCACUGCAGACUUGACGAAGCUG
Outline: as §1

biotinyl-Phe-oxazolone = experiment: self-aminoacylation, catalytic enhancement (BFO) (fold over background); higher = more active; k-Seq, kA / k0A0; sequences stand for … in GGGAAUGGAUCCACAUCUACGAAUUC…UUCACUGCAGACUUGACGAAGCUG
Outline: as §1

Sequence: AUUACCCUGGUCAUCGAGUCU [Fam2.1 aminoacylation ribozyme variant]
- self-aminoacylation (biotinyl-Leu-oxazolone): 0.712
- self-aminoacylation (biotinyl-Ile-oxazolone): 0.697
- self-aminoacylation (biotinyl-Val-oxazolone): 0.901
- self-aminoacylation (biotinyl-Met-oxazolone): 0.784
- self-aminoacylation (biotinyl-Trp-oxazolone): 0.846
- self-aminoacylation (biotinyl-Phe-oxazolone): 0.56

Sequence: AAAUUUGUUAAUAGUCGCAAG [Fam3.1 aminoacylation ribozyme variant]
- self-aminoacylation (biotinyl-Leu-oxazolone): 1.99
- self-aminoacylation (biotinyl-Ile-oxazolone): 2.11
- self-aminoacylation (biotinyl-Val-oxazolone): 1.59
- self-aminoacylation (biotinyl-Met-oxazolone): 2.04
- self-aminoacylation (biotinyl-Trp-oxazolone): 1.76
- self-aminoacylation (biotinyl-Phe-oxazolone): 2.69

Sequence: CUACUUCAAACAAGCUGUCUG [Fam1A.1 aminoacylation ribozyme variant]
- self-aminoacylation (biotinyl-Leu-oxazolone): 0.795
- self-aminoacylation (biotinyl-Ile-oxazolone): 0.733
- self-aminoacylation (biotinyl-Val-oxazolone): 0.734
- self-aminoacylation (biotinyl-Met-oxazolone): 0.7
- self-aminoacylation (biotinyl-Trp-oxazolone): 0.356
- self-aminoacylation (biotinyl-Phe-oxazolone): 0.642

Sequence: CCAUACUACAAGCAAUCGGUC [Fam1B.1 aminoacylation ribozyme variant]
- self-aminoacylation (biotinyl-Leu-oxazolone): 0.772
- self-aminoacylation (biotinyl-Ile-oxazolone): 0.884
- self-aminoacylation (biotinyl-Val-oxazolone): 0.779
- self-aminoacylation (biotinyl-Met-oxazolone): 0.696
- self-aminoacylation (biotinyl-Trp-oxazolone): 0.655
- self-aminoacylation (biotinyl-Phe-oxazolone): 0.942

Sequence: AUUCACCUAUGACAUCGGGUG [Fam2.2 aminoacylation ribozyme variant]
- self-aminoacylation (biotinyl-Leu-oxazolone): 3.63
- self-aminoacylation (biotinyl-Ile-oxazolone): 2.25
- self-aminoacylation (biotinyl-Val-oxazolone): 1.73
- self-aminoacylation (biotinyl-Met-oxazolone): 3.24
- self-aminoacylation (biotinyl-Trp-oxazolone): 3.44
- self-aminoacylation (biotinyl-Phe-oxazolone): 22.3

Sequence: AUUCACCUGGGUCAUCGGGAG [Fam2.2 aminoacylation ribozyme variant]
- self-aminoacylation (biotinyl-Leu-oxazolone): 1.51
- self-aminoacylation (biotinyl-Ile-oxazolone): 1.65
- self-aminoacylation (biotinyl-Val-oxazolone): 1.62
- self-aminoacylation (biotinyl-Met-oxazolone): 1.86
- self-aminoacylation (biotinyl-Trp-oxazolone): 2.29
- self-aminoacylation (biotinyl-Phe-oxazolone): 7.65

Sequence: CUACACUUCAAGCAAUCAGUC [Fam1B.1 aminoacylation ribozyme variant]
- self-aminoacylation (biotinyl-Leu-oxazolone): 0.754
- self-aminoacylation (biotinyl-Ile-oxazolone): 0.668
- self-aminoacylation (biotinyl-Val-oxazolone): 0.886
- self-aminoacylation (biotinyl-Met-oxazolone): 0.718
- self-aminoacylation (biotinyl-Trp-oxazolone): 6.32
- self-aminoacylation (biotinyl-Phe-oxazolone): 21

Sequence: CCACACUUCAAGCUCUCGGUC [Fam1B.1 aminoacylation ribozyme variant]
- self-aminoacylation (biotinyl-Leu-oxazolone): 1.25
- self-aminoacylation (biotinyl-Ile-oxazolone): 1.21
- self-aminoacylation (biotinyl-Val-oxazolone): 1.42
- self-aminoacylation (biotinyl-Met-oxazolone): 1.14
- self-aminoacylation (biotinyl-Trp-oxazolone): 1.1
- self-aminoacylation (biotinyl-Phe-oxazolone): 0.716

Sequence: AUUCUCCUAGGUCGUCGGGUG [Fam2.2 aminoacylation ribozyme variant]
- self-aminoacylation (biotinyl-Leu-oxazolone): 2.85
- self-aminoacylation (biotinyl-Ile-oxazolone): 2.55
- self-aminoacylation (biotinyl-Val-oxazolone): 2.38
- self-aminoacylation (biotinyl-Met-oxazolone): 2.72
- self-aminoacylation (biotinyl-Trp-oxazolone): 2.28
- self-aminoacylation (biotinyl-Phe-oxazolone): 12.2

Sequence: AUUAACCUAGGUCAUCGGUUG [Fam2.2 aminoacylation ribozyme variant]
- self-aminoacylation (biotinyl-Leu-oxazolone): 1.19
- self-aminoacylation (biotinyl-Ile-oxazolone): 1.02
- self-aminoacylation (biotinyl-Val-oxazolone): 1.09
- self-aminoacylation (biotinyl-Met-oxazolone): 1.07
- self-aminoacylation (biotinyl-Trp-oxazolone): 1.05
- self-aminoacylation (biotinyl-Phe-oxazolone): 3.47

Sequence: CUACUUGAAACAACCGGUCUG [Fam1A.1 aminoacylation ribozyme variant]
- self-aminoacylation (biotinyl-Leu-oxazolone): 0.805
- self-aminoacylation (biotinyl-Ile-oxazolone): 1.07
- self-aminoacylation (biotinyl-Val-oxazolone): 1.01
- self-aminoacylation (biotinyl-Met-oxazolone): 1.18
- self-aminoacylation (biotinyl-Trp-oxazolone): 1.24
- self-aminoacylation (biotinyl-Phe-oxazolone): 0.529

Sequence: CAUCACUUCAAGCAAUCGGUC [Fam1B.1 aminoacylation ribozyme variant]
- self-aminoacylation (biotinyl-Leu-oxazolone): 1.47
- self-aminoacylation (biotinyl-Ile-oxazolone): 1.17
- self-aminoacylation (biotinyl-Val-oxazolone): 1.2
- self-aminoacylation (biotinyl-Met-oxazolone): 1.09
- self-aminoacylation (biotinyl-Trp-oxazolone): 15.6
- self-aminoacylation (biotinyl-Phe-oxazolone): 32.7

Sequence: AAGCUUGCUAAUAGUAGCAAG [Fam3.1 aminoacylation ribozyme variant]
- self-aminoacylation (biotinyl-Leu-oxazolone): 1.55
- self-aminoacylation (biotinyl-Ile-oxazolone): 1.39
- self-aminoacylation (biotinyl-Val-oxazolone): 1.3
- self-aminoacylation (biotinyl-Met-oxazolone): 1.08
- self-aminoacylation (biotinyl-Trp-oxazolone): 2.48
- self-aminoacylation (biotinyl-Phe-oxazolone): 2.27

Sequence: AAGUUUGCUAAUAAUCGAAAG [Fam3.1 aminoacylation ribozyme variant]
- self-aminoacylation (biotinyl-Leu-oxazolone): 0.95
- self-aminoacylation (biotinyl-Ile-oxazolone): 1.02
- self-aminoacylation (biotinyl-Val-oxazolone): 0.764
- self-aminoacylation (biotinyl-Met-oxazolone): 0.793
- self-aminoacylation (biotinyl-Trp-oxazolone): 0.78
- self-aminoacylation (biotinyl-Phe-oxazolone): 0.807

Sequence: CUACUUUAAACAACCGGUCUG [Fam1A.1 aminoacylation ribozyme variant]
- self-aminoacylation (biotinyl-Leu-oxazolone): 0.978
- self-aminoacylation (biotinyl-Ile-oxazolone): 0.909
- self-aminoacylation (biotinyl-Val-oxazolone): 0.973
- self-aminoacylation (biotinyl-Met-oxazolone): 0.996
- self-aminoacylation (biotinyl-Trp-oxazolone): 1.07
- self-aminoacylation (biotinyl-Phe-oxazolone): 0.725

Sequence: AAGUUUGCUGAUAGUCGGAAG [Fam3.1 aminoacylation ribozyme variant]
- self-aminoacylation (biotinyl-Leu-oxazolone): 0.849
- self-aminoacylation (biotinyl-Ile-oxazolone): 0.72
- self-aminoacylation (biotinyl-Val-oxazolone): 0.838
- self-aminoacylation (biotinyl-Met-oxazolone): 0.933
- self-aminoacylation (biotinyl-Trp-oxazolone): 0.832
- self-aminoacylation (biotinyl-Phe-oxazolone): 0.837

Sequence: CCACACUUCAAGCAAUCGCUA [Fam1B.1 aminoacylation ribozyme variant]
- self-aminoacylation (biotinyl-Leu-oxazolone): 1.44
- self-aminoacylation (biotinyl-Ile-oxazolone): 1.41
- self-aminoacylation (biotinyl-Val-oxazolone): 1.94
- self-aminoacylation (biotinyl-Met-oxazolone): 1.22
- self-aminoacylation (biotinyl-Trp-oxazolone): 1.27
- self-aminoacylation (biotinyl-Phe-oxazolone): 1.05

Sequence: CCAUACUUCAAGCAAGCGGUC [Fam1B.1 aminoacylation ribozyme variant]
- self-aminoacylation (biotinyl-Leu-oxazolone): 0.875
- self-aminoacylation (biotinyl-Ile-oxazolone): 1.09
- self-aminoacylation (biotinyl-Val-oxazolone): 1.03
- self-aminoacylation (biotinyl-Met-oxazolone): 0.775
- self-aminoacylation (biotinyl-Trp-oxazolone): 0.726
- self-aminoacylation (biotinyl-Phe-oxazolone): 0.737

Sequence: AUUGCCCUGGUCAUCGAGUGA [Fam2.1 aminoacylation ribozyme variant]
- self-aminoacylation (biotinyl-Leu-oxazolone): 51.2
- self-aminoacylation (biotinyl-Ile-oxazolone): 20.6
- self-aminoacylation (biotinyl-Val-oxazolone): 23.7
- self-aminoacylation (biotinyl-Met-oxazolone): 53.1
- self-aminoacylation (biotinyl-Trp-oxazolone): 60
- self-aminoacylation (biotinyl-Phe-oxazolone): 367

Sequence: AAGUUCGCUAAUAGGCGCAAG [Fam3.1 aminoacylation ribozyme variant]
- self-aminoacylation (biotinyl-Leu-oxazolone): 1.03
- self-aminoacylation (biotinyl-Ile-oxazolone): 1.23
- self-aminoacylation (biotinyl-Val-oxazolone): 1.16
- self-aminoacylation (biotinyl-Met-oxazolone): 0.965
- self-aminoacylation (biotinyl-Trp-oxazolone): 1.2
- self-aminoacylation (biotinyl-Phe-oxazolone): 1.58

Sequence: AAUCACCUAGGUCGUCGGGUG [Fam2.2 aminoacylation ribozyme variant]
- self-aminoacylation (biotinyl-Leu-oxazolone): 3.25
- self-aminoacylation (biotinyl-Ile-oxazolone): 2.12
- self-aminoacylation (biotinyl-Val-oxazolone): 2.19
- self-aminoacylation (biotinyl-Met-oxazolone): 2.21
- self-aminoacylation (biotinyl-Trp-oxazolone): 1.34
- self-aminoacylation (biotinyl-Phe-oxazolone): 7.97

Sequence: CCACACUUCAAGCAAUCAGUU [Fam1B.1 aminoacylation ribozyme variant]
- self-aminoacylation (biotinyl-Leu-oxazolone): 0.925
- self-aminoacylation (biotinyl-Ile-oxazolone): 1.15
- self-aminoacylation (biotinyl-Val-oxazolone): 1.29
- self-aminoacylation (biotinyl-Met-oxazolone): 0.802
- self-aminoacylation (biotinyl-Trp-oxazolone): 1.12
- self-aminoacylation (biotinyl-Phe-oxazolone): 2.42

Sequence: AAGUUUGCUCAAAGUCGCAAG [Fam3.1 aminoacylation ribozyme variant]
- self-aminoacylation (biotinyl-Leu-oxazolone): 0.974
- self-aminoacylation (biotinyl-Ile-oxazolone): 1.24
- self-aminoacylation (biotinyl-Val-oxazolone): 0.877
- self-aminoacylation (biotinyl-Met-oxazolone): 1.37
- self-aminoacylation (biotinyl-Trp-oxazolone): 1.13
- self-aminoacylation (biotinyl-Phe-oxazolone): 2.29

Sequence: AUUACCCUGGUCUUCGAGUGA [Fam2.1 aminoacylation ribozyme variant]
- self-aminoacylation (biotinyl-Leu-oxazolone): 5.52
- self-aminoacylation (biotinyl-Ile-oxazolone): 3.09
- self-aminoacylation (biotinyl-Val-oxazolone): 3.3
- self-aminoacylation (biotinyl-Met-oxazolone): 5.36
- self-aminoacylation (biotinyl-Trp-oxazolone): 6.84
- self-aminoacylation (biotinyl-Phe-oxazolone): 26.4

Sequence: AUUACCCAAGUCAUCGAGUGA [Fam2.1 aminoacylation ribozyme variant]
- self-aminoacylation (biotinyl-Leu-oxazolone): 9.5
- self-aminoacylation (biotinyl-Ile-oxazolone): 4.5
- self-aminoacylation (biotinyl-Val-oxazolone): 4.46
- self-aminoacylation (biotinyl-Met-oxazolone): 8.57
- self-aminoacylation (biotinyl-Trp-oxazolone): 9.59
- self-aminoacylation (biotinyl-Phe-oxazolone): 42.4

Sequence: AUUCACCUAGGUCAACGCGUG [Fam2.2 aminoacylation ribozyme variant]
- self-aminoacylation (biotinyl-Leu-oxazolone): 7.6
- self-aminoacylation (biotinyl-Ile-oxazolone): 3.59
- self-aminoacylation (biotinyl-Val-oxazolone): 3.6
- self-aminoacylation (biotinyl-Met-oxazolone): 5.53
- self-aminoacylation (biotinyl-Trp-oxazolone): 5.44
- self-aminoacylation (biotinyl-Phe-oxazolone): 43.4
